According to publication PMC13334617 (Advanced Science, 2026):

Molecular target: wild-type AC fused to GFP (AC-GFP), encoded by plasmid pAC0-Gfp (GFP: Aequorea victoria (variant not …, UniProt P42212 = GFP))
Assay: two-hybrid
Conditions: partners not purified

B1: CaM fused to the V9A nanobody at its N-terminus and a tetra-cysteine tag at its C-terminus (CaM-V9A), encoded by plasmid pTCam-V9A (VHH)
VHH: DVQLQESGGGSVQAGGSLRLSCAASGDTFSSYSMAWFRQAPGKECELVSNILRDGTTTYAGSVKGRFTISRDDAKNTVYLQMVNLKSEDTARYYCAADSGTQLGYVGAVGLSCLDYVMDYWGKGTQVTVSS
notes: source: E. coli DHM1, expressed in cells from plasmid pTCam-V9A (high expression); not shown: tetra-cysteine tag, C-terminal, kept
cAMP: > 250 nmol/mg
ß gal (Rel. Units): 107 Rel. Units
